From the supplement of paper PMC12764529
± gives the half width of the 95% confidence interval.

What was measured:
[1] = folding stability dG unfold from trypsin proteolysis; higher = more stable
Method in brief: (§1)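 Unfolding free energy was derived, per protease or combined, against a sequence-predicted unfolded-state K50 and a shared folded-state K50, starting from K50 inferred by Bayesian fitting of sequencing counts. Digestion with trypsin and chymotrypsin was carried out on designed mini-proteins under 80 residues without cysteine in a PA-tagged cDNA display construct. Only designs with AlphaFold2 dimer inter-PAE above 15 were kept.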

[2] = folding stability dG unfold from chymotrypsin proteolysis; higher = more stable
Method in brief: as §1

[3] = folding stability dG unfold (combined trypsin and chymotrypsin); higher = more stable
Method in brief: as §1

Row | Sequence | folding stability dG unfold [1] [kcal/mol] | folding stability dG unfold [2] [kcal/mol] | folding stability dG unfold [3] [kcal/mol]
1 | SGPIAELVKAHPGVPVEDLAKAIVDALKAQLPKDVPITVDAEVTPDGIKLNVTVEGDTEPFTFPFVVKPGSA [r9_805_TrMRF] | 0.879 ± 0.024 | 1.34 ± 0.038 | 1.2 ± 0.043
2 | SGREEEIAEELREKLLAEGYTEVEVEIEVRPDPNSDNVLVTVTVRATKKDAEGNWKTYEETIPVLIPAEASA [r9_440_JUSTAS] | 3.12 ± 0.26 | 3.23 ± 0.15 | 3.11 ± 0.25
3 | SGSMTLVSESTVPEKGTTLLTLKFPNGAPATVTLNPDGSSTTTFPATGLPFTVTVGSGTLTVTTPAALALSA [r9_233_JUSTAS] | 1.01 ± 0.1 | 1.42 ± 0.12 | 1.23 ± 0.18
4 | SGSSYLPLEDVKTEWKKNPNSDVYNYTTFLQTPSGEPISVTYDPKTGKITFNLPPGTTWRPGKKSEVKLESA [r9_509_JUSTAS] | 0.124 ± 0.16 | 1.13 ± 0.23 | 0.864 ± 0.16
5 | SGVEYIEIPLEVTLDAPLEKAFEFLEDLAEEFGLGDIEVLEVEVDPETGKVRVKALARIAIAPPPPPSLESA [r9_918_TrMRF] | 2.83 ± 0.044 | 3.53 ± 0.11 | 3.19 ± 0.17
6 | SGVLVVTHPDGSVSTVPFTHPDGLVVDISAGVDAPLYATVVRLLPDGTPEPLPVFEFDSIEDVLEALAEASA [r9_942_TrMRF] | 0.545 ± 0.016 | 1.983 ± 0.014 | 1.61 ± 0.023
7 | SHPDEFPKELVDAIAKAFPNIKRIEVEPLPDKFVLLKVEFIDGDGEGRVAFAVPTPDGETALHEYLVRNPSA [r9_678_TrMRF] | 1 ± 0.013 | 1.23 ± 0.062 | 1.14 ± 0.056
8 | SHWVRKELQEKGYPVKDIEMNPPQGYFYITIQRKRPRKGKPKKKEITIPMDPNMTPDNMLWMARNALDAYSA [r9_184_TrROS] | 1.05 ± 0.14 | 0.594 ± 0.14 | 0.804 ± 0.1
9 | SIEFKEGQWFPIREIDNNHIEWKHNNEPYKIPPDEIDEPGDWIRITNGRIPEIRPPPPPPVDPEDAKKKKSA [r9_842_TrROS] | 2.6 ± 0.32 | 4.12 ± 0.32 | 3.51 ± 0.33
10 | SIINALREALKDGKPGQEIPIMMPPDGMGELMNWLQDYGFKPKKMEPMPMNNRPMYTHEFTIDPKNGKFRSA [r9_498_TrROS] | -0.0613 ± 0.39 | 0.26 ± 0.26 | 0.0967 ± 0.29
11 | SIKELAKELPGFQVSVEPDDPGQVKITIMVPDDPQQQKRFQNKIIELANDIQGEHGMPVTIEIQPVPPGDSA [r9_1099_TrROS] | -0.238 ± 0.056 | 0.0536 ± 0.096 | -0.00283 ± 0.081
12 | SIKLSNGETIEYEPSPNKTYTIKHPDGRVVKILKVEREKDKYTVEIQFDDGSTKTIEIPPDKPEIIEKELLS [r1_66_JUSTAS] | 1.37 ± 0.027 | 0.951 ± 0.08 | 1.24 ± 0.12
13 | SIRGMPPEVVLYIIRFFAREQKNKGMPPDDRPIEINIMMPNPEARKDAKKEIKEENPGIKDVKIEVMPPNSA [r9_341_TrROS] | 2.2 ± 0.11 | 3.1 ± 0.17 | 2.61 ± 0.56
14 | SITIMVDNLPPGATAEELASTLFNWIQQFGWEVTPIKITPMPDNWVTVEIEFKNNGKPIFRETIEFRPDASA [r9_953_TrROS] | 2.4 ± 0.092 | 3.56 ± 0.06 | 3.26 ± 0.09
15 | SIVIRLPDGKPLMIQLTMYYPPDNDKIEIPVEIYDGGKPRTFEHEIPPGDNKPVTFSLHIPLPPGAYIKISA [r9_973_TrROS] | 2.17 ± 0.12 | 2.45 ± 0.14 | 2.38 ± 0.23
16 | SIWFSPGKKYKIDEIRFGGWEIEKFTAQVGPDGNIQIPMDIKPVKKPPPPPPVVRNPEDGKYYDPGDPKDSA [r9_603_TrROS] | -0.127 ± 0.39 | 1.64 ± 0.25 | 1.04 ± 0.78
17 | SIYIMLPVPPGKPYKLSIEIEMPDNGRPYEYDGTFNPENGWVMFPVRFPDNGHPIPPEDFKVKVELEPPKSA [r9_928_TrROS] | 1.42 ± 0.072 | 2.45 ± 0.14 | 2.07 ± 0.23
18 | SKDPNNEWVVIKFEVTIPVPPGQKPITADEIASQVRQIMQNHGMEITSVEVEYRGNQVTVSVEIVIPKKASA [r9_1134_TrROS] | 3.23 ± 0.19 | 3.32 ± 0.11 | 3.22 ± 0.18

Row | Sequence | folding stability dG unfold [1] [kcal/mol] | folding stability dG unfold [2] [kcal/mol] | folding stability dG unfold [3] [kcal/mol]
19 | SKEEEEEIEIEIVVPNLTEEEIKELAKELLEKKGYEVEEIEITEEELEELKNKKPGDEVVIKIKIKVKKKSA [r9_1163_TrROS_Hall] | 2.51 ± 0.19 | 2.27 ± 0.073 | 2.51 ± 0.2
20 | SKEVKITIEVKEVNGKLYVVVKVEVNGKEETLVFKSLEEAKNAIAKKLGLPKEKIKIKKVEVYKVSKKDLSA [r9_909_TrROS_Hall] | 0.964 ± 0.16 | 0.869 ± 0.21 | 1.07 ± 0.24
21 | SKGKKTVTINFMLKVEDPEDLPPGQEVKIPPEFIDFLRDQGFKITEIKIRVVPPPDGDVYVMFSSTIEVDSA [r9_465_TrROS] | 1.99 ± 0.097 | 3.53 ± 0.1 | 2.88 ± 0.34
22 | SKGTFMAMMPLDEIKEIVENFAKQGWNIKIKPKSIQPFPFPHNDEDGEPEPYPMVMVEVEIKIVPPGDPPSA [r9_991_TrROS] | 1.33 ± 0.024 | 1.89 ± 0.086 | 1.64 ± 0.097
23 | SKIEIEVFPEEGFIRIRLEAENLTEEELKDAIIEFIKSLGFPAEVEILRIEPSGNTIRIEALVKVEPGYLSA [r9_347_TrMRF] | 3.27 ± 0.12 | 2.673 ± 0.022 | 2.97 ± 0.093
24 | SKIRIIRPERSLEIDLPKSARIEFDPETRRIYFINPDGERLEFPLGPNAVIIPGDDEITIIDPPASPENPSA [r9_653_TrMRF] | 2.21 ± 0.038 | 3.68 ± 0.042 | 3.19 ± 0.079
25 | SKKIKIILRYPDGWYVKAEMEVPNGKERDIWFPNPEEAIEWAKTIARQFNPGVEIEDIETVPPDDLPPNFSA [r9_137_TrROS] | 1.21 ± 0.084 | 1.86 ± 0.077 | 1.61 ± 0.23
26 | SKKKTLKIVDKETNVVIEMTAEELAEKLGLSVEDLEIEVVDLKTKEVKTIKIKLPKPKPEEKKKVKEEEKSA [r9_819_TrROS_Hall] | -0.336 ± 0.23 | 1.18 ± 0.046 | 0.75 ± 0.15
27 | SKKKVTIEIEIVVRVPEGDELKNMTAEELAALLAEELGVEVEIVEVELVEYDEETGEYYVRIKVKITFPESA [r9_107_TrROS_Hall] | 2.95 ± 0.17 | 2.83 ± 0.13 | 2.76 ± 0.14
28 | SKKPKLKIEIEIPEITNMQPDPDNGKYTMRVPFRIKIEWKDNGKEREVDIPIPMNMTVDDARDQLKDLLKSA [r9_656_TrROS] | 0.629 ± 0.044 | 1.57 ± 0.16 | 1.1 ± 0.13
29 | SKKTVTIELYVPNMTPEQLRALLEALGYKVKKEEFDEDRGVVRLTVELPEDGTTITITIVRPPLPPGEKPSA [r9_1090_TrROS_Hall] | 2.25 ± 0.12 | 2.54 ± 0.046 | 2.59 ± 0.12
30 | SKKVEIKIKVERNEDGYLTVTIEIRAETEEELLEAAKELAKALFPEDVEIRVEKLPDGTVKITIVVKLPPSA [r9_646_TrROS_Hall] | 2.65 ± 0.15 | 1.9 ± 0.11 | 2.29 ± 0.14
31 | SKKVKITEITFPEGATFDGKKVTVTIKIVDEETGTVTITEITVDKNGKVTIKEVTVKVDPKTGKIVEITPSA [r9_122_TrROS_Hall] | 1.74 ± 0.06 | 2.02 ± 0.04 | 1.8 ± 0.19
32 | SKKVKPIATIDVEGMSLEELLAAIKAALPPGEKAIVRIVNADGEVRTIEIDAKTGEIKSLPPGARIYIYPSA [r9_853_TrROS_Hall] | 2.1 ± 0.027 | 1.95 ± 0.035 | 2.02 ± 0.048
33 | SKKVTIMIMIRRRDPEDGKYRPIPPEFILEMVRRARKKGKKVKITFMNPDNPWAKRLAKRAKEEGIKIEWSA [r9_468_TrROS] | 2 ± 0.05 | 2.1 ± 0.14 | 2.1 ± 0.11
34 | SKLKIEEIEINPNMPYTISVKLPDGFYISIQYDPGKPDQMKMNIFPPDGKKREHTIPANEPIRINFEIEPSA [r9_875_TrROS] | 1.35 ± 0.034 | 2.55 ± 0.04 | 2.19 ± 0.12
35 | SKLPPGQPYRRVEMTITFDFKSPKELRKKIRELFGKIEVDMKHNPEDNWYTIDIWFPSPAVMDELKELIFSA [r9_764_TrROS] | 3.06 ± 0.17 | 3.29 ± 0.061 | 3.07 ± 0.23
36 | SKLVEKIAEEFGISSAMPHPDGQFMIMFPDGYMIKINIEIDEVKPKPDGKPELDLDIEIEIIPMPPPDDMSA [r9_648_TrROS] | 2.05 ± 0.067 | 2.74 ± 0.072 | 2.39 ± 0.19
